Reference: the supplement of paper PMC9170038

Test system: K4 kissing-loop RNA reporter
Assay: apparent KD of K4 kissing-loop reporter; higher = weaker reporter binding
Settings: Eterna round: R107
Description: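 RNA-MaP round R107: designed RNA switches with theophylline, tryptophan, arginine or FMN aptamers are transcribed on-chip within common flanks. They are titrated with a labelled K4 kissing-loop RNA reporter in RNA-MaP buffer (100 mM Tris pH 7.5, 80 mM KCl, 4 mM MgCl2), without ligand or with the indicated ligand. Median apparent KD per design.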

[1] = input ligand: theophylline 20 uM
[2] = input ligand: tryptophan 2.4 mM
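Also: bound reporter read as fluorescence of individual clusters on recovered sequencing chips by microscopy, with normalized cluster intensities fitted with a binding model.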

Sequence	apparent KD of K4 kissing-loop reporter (input ligand: FMN 200 uM) [nM]	apparent KD of K4 kissing-loop reporter (input ligand: arginine 13.2 mM) [nM]	apparent KD of K4 kissing-loop reporter (input ligand: none) [nM]	apparent KD of K4 kissing-loop reporter [1] [nM]	apparent KD of K4 kissing-loop reporter [2] [nM]
CGGGAAUUAGGUAUCGUCGAAAGCAAGAACCGAGGACCGGUACGGCCGCCACUCGCACCAGUGAUGUUGGUACAUUUGGUAUCCG [theeternabot_sameState_KL_Trp_A_31]	115	112	134	103	132
CGUAGAUACUGAGGAUAUCAGAAAUCUGAUAUCAUCAGAGGUCUGAGUGAUGUUCAGAUGCGACUCUGAGAAGGCAGUAGGAGUC [FMN B Ex t2]	134	107	131	123	115
CGUGAGUGCCGACGGUCAUCGGUCCAUGCACGAGGACCGGUACGGCCGCCACUCGAGCGUGGCAGUGAUGUUGCCAGCGCACUAA [Oninvexece]	114	89.5	101	98.5	85.6
CGUGCCCAGCCGGAUACCAGUGACCCGCUGGGAACCGCGGGCCCAGAGUGAUGUUCGGGACACCCUUGGCAGCCGCCUGGGCGGU [#2 Same State - Theophylline B Attempt #11 (HarryS)]	1170	343	584	1190	791
CGUUUAUAGCAGGAUACCAGUACCCAUAAAGUACGUUAAUAGUAGAGUGAUGUUCUAAAGUACCCUUGGCAGCUUCCCGUGACCG [ExTheophylB.V]	106	158	129	142	83.3
CGUUUAUAGCAGGAUACCAGUACCCAUAAAGUACGUUAAUAGUAGAGUGAUGUUCUAAAGUACCCUUGGCAGCUUCCCGUGACUG [ExTheophylB.U]	65.3	116	79.5	99.8	52.9
CGUUUAUAGCAGGAUACCAGUACCCAUAAAGUACGUUAAUAGUAGAGUGAUGUUCUAAAGUACCCUUGGCAGCUUCGAGUGAGUG [ExTheophylB.R]	72.5	114	85.1	103	54
CUAGGUAACACAGGAUAUGUCCGAGUGAUGUUCGAGCCUUUCCAUUGACGAAAUUAAUGGUGGGUGACAGAAGGGUGAGUACUGA [Uses]	457	640	1090	640	828
CUAUCGGUGCCAGUGAUGUUGGUACCGCCACGAGGACCGGUACGGCCGCCACUCGCAUUAGAUGAUCACACAGUGUAUACUGCUA [Aleusorza]	139	128	135	159	122
CUCAAACCGUGGGCAUUUCGCAAAGUAGAUACCAGUCGCAACGGUGACCCUUGGCAGCUAGUAAAGUGAUGUUUUAUCGGCACCA [theeternabot_exclusion_KL_Theo_A_35]	78.4	80.4	78	78.6	69.1
CUCACGCUCACAGAUACCAGUGGUGAUCCGGAUUGUAGUGAUGUUAAUUCCGCCAUCAUACACCCUUGGCAGCUGGCGUCACCUU [theeternabot_sameState_KL_Theo_B_31]	799	417	654	871	715
CUCGAGUGAUGUUCGACGCGUCCGUACGAUACCAGCGUAGACCGUCGCCCUUGGCAGCGUGAUGCAGCCCGAAAGUCCGGUUCCU [theeternabot_sameState_KL_Theo_A_26]	1160	833	1430	1120	1070
CUCGUGGGUUUGAGAGGGCUUGUGGGAAGUGAGGAUAUUUAGGGAGAAAGAAGGCACUAUAGAAUAUAGUGAUGUUAUAUAUGGG [SSFMNA.Q]	313	109	264	69.3	256
CUGCAACAUAACUUCUUCGUCCUAGAAGACUAGGAUAUCAGGAAACUGAGAAGGAGUCUCUGCAGUGAUGUUGCAGUUAGGACGA [KL-SSFMN-A7]	139	135	115	160	138
CUGUACAUCUCGGCCGCCACUGACCUAAGUGAUGUUAGGAAUGAAACCUAGUGAUGUUAGCAAACCAGGACCGGGAGGUGUGCAG [KL-SSTryp-B4 #Double Kiss]	110	33.4	83.2	40.2	51.8
CUUAAGGAGUGUCGUGCCGGACACUGGGAAGGAGCGCAAUUCUUUGCAGGUAGGUCGCCCAGUGAUGUUGGGUCUCGCUGUCGAA [KL-XArg-A20]	139	253	204	376	285
CUUAUGGACUAAGGAUAUGGGUAUACCGGAAGCGCCGUCACGGUAGUGAUGUUACACGCGACGGGACCAGAAGGUAGAUCGCUCC [theeternabot_exclusion_KL_FMN_B_33]	73.9	96.2	101	71.3	85.5
CUUAUGGAGUGUCGUACCGGACACUGGGAAGGAGCGCAAUUCUUUGCAGGUAGGUCGCCCAGUGAUGUUGGGUGGCGCUGUCGAA [Xebeor]	191	173	181	266	169
CUUGGAAGGACGGCCGCCACUCGACAGUGAUGUUGUCCGAGUUGGUAACGCAGUGAUGUUGUGUCGAGGACCGGGUCCUAGGAAU [Exclusion Tryptophan B GF 26]	199	149	185	174	147
GAAAGAAAGUAUGAUACCAGACACCCGAGUGAUGUUCGGAGCAGUGUGUUGUUCUUUUAAGUCCCUUGGCAGCAUAAAAGAAAAG [whbob_SS_Theo_B_sa85]	116	107	127	114	87.1
GAACGAGUGAUGUUCGUUAUUAUGCAUUCCGAGGAUAUGGGAUUAGCCAGAAGGCGGAAUCAAUCUUCGAGUGAUGUUCGAAGAU [Same State FMN A GF 11]	129	138	142	119	136
GACAUAUUCCAGGAUACCAGUGAUCCGCCGCAGCCGAAGACUAGUGAUGUUAGUUUCUGUCACCCUUGGCAGCCUCGAGUCUAAU [theeternabot_sameState_KL_Theo_B_15]	420	487	498	572	434

Sequence	apparent KD of K4 kissing-loop reporter (input ligand: FMN 200 uM) [nM]	apparent KD of K4 kissing-loop reporter (input ligand: arginine 13.2 mM) [nM]	apparent KD of K4 kissing-loop reporter (input ligand: none) [nM]	apparent KD of K4 kissing-loop reporter [1] [nM]	apparent KD of K4 kissing-loop reporter [2] [nM]
GACCGGCCGACGAGUGAUGUUCGAUGGGAAGGAGCGCGAAGAAAUGCAGGUAGGUCGCCCUAAGUAAUUGAAACGGCCGGAUUAU [2.)]	137	143	128	212	102
GAGAGCCCUGUAGGAUAUGAGUCUAGUGAUGUUAGGCGGUCCAUGCGCGUGGCGCGUUAUGCCCUUUUAGAAGGACAGGGCUCUC [#2 Exclusion - FMN B Attempt #20 (HarryS)]	105	67.2	80.9	80.1	80
GAGAUAGAGGCGGCCGCCACUAGUGAUGUUAGUGAUGUUAGAUAGAGAAUAGAACAGAGAUAGGAUAGGACCGGGCCAGAUAGAG [Tryptophan B Exclusion; Euphoria Solution]	69.4	60.8	57.4	52.1	68.6
GAGCCAGAGGUUGCUGCGGGUUCCAGAGAUACCAGCCGUAUUGAAGGCCCUUGGCAGCUCGAGUGAUGUUCGAGCCGCCUCUGAC [Isquleorve]	119	104	97.2	108	110
GAUACCACGUUAGAUACCAGCUUCGUUGACUUGGGUAGUAGUCGAACUUCAGUGAUGUUGAGCCCUUGGCAGCUACAGAUGUGCG [theeternabot_exclusion_KL_Theo_B_38]	657	311	654	588	624
GAUAGUUAGAGAGAUACCAGCGAUACCUAGAUGGAAAGUGAUGUUCGCCAUCAAUUGCACCGCCCUUGGCAGCUCUCUCUUUGCU [theeternabot_exclusion_KL_Theo_B_37]	995	763	1170	974	959
GAUAUAUAGACGGCCGCCACUUAUAAAUUUCAGUGAUGUUGAAAUGUUAAAUAACGAACACAAUAGAGGACCGGGUCAAAUAUCG [Same State Tryptophan B GF 2]	162	161	190	187	171
GAUUGAGUGAUGUUCAAUUAGUAUCUAGAUACCAGAAUGUCUACCUUCCCUUGGCAGCUACUGACGGUGAUCAUUUCGCGCGCAG [theeternabot_sameState_KL_Theo_A_19]	235	222	244	253	195
GCAAAGUGUCAUAUUAUCUAGCAGCUGCGAAAGGAUAUGAGAGUGCUCAGAAGGUUCUUGGCGGAGUGAUGUUCCGCGUAAAUGG [theeternabot_exclusion_KL_FMN_A_22]	84.2	93.8	93.9	103	81.4
GCAGACCGCAGUGAUGUUGCGAAAUCGGAAGGAGCGCGUGAAAACGCAGGUAGGUCGCCGACACAGGGAUUAUAACCCUGUUUGC [Arginine A K4 16]	173	196	207	176	154
GCAGCUCGGGAGUGAUGUUCUCGUAGAGGAAAGGAUAUGUACUUAGACAGAAGGUUCGCAAUUUGCGGUCUUAAGAUAGAAUAAC [theeternabot_sameState_KL_FMN_A_40]	177	126	207	224	152
GCAGGAUGAGGAGGAGGAUGAAUUACUGAAGGAGCGCAUAUUUUUGCAGGUAGGUCGCGGUAAAGAAGUAUAGUGAUGUUAUAUA [SSArgA.K]	333	255	267	568	456
GCAGUGAUGUUGCGGAUGUACAGUGGCGUGCGAGGACCGGUACGGCCGCCACUCGUACAGACCAAGCUAAUACAUCGAUAGGUGA [whbob_SS_Tryp_A_m3]	344	247	353	287	218
GCAGUGAUGUUGCUGAUGUGCAGUGGUAGUCGAGGACCGGUACGGCCGCCACUCGGUGAGAAUUUGUUAAUACAUCGAUAAGUGA [XVI]	968	558	788	509	707
GCAUCCUAGUCGGCCGCCACUAACAUGAGUGAUGUUCAUGUACGUCAGUGAUGUUGACGUAGUUAUAGGACCGGGACUAGGAUGC [KL-SSTryp-B7 Brourdwalk3]	146	119	137	118	120
GCCAGAGCGCGAAGGAGCGCCGUGACAGGUUGCUGCCGUGGGCAGUGAUGUUGCUCAAUCUGGCAGGUAGGUCGCGUGCUCUGGC	269	219	273	226	248
GCCCUCUUAACGGCCGCCACUAUAUUUAUGAUCUCUAGUAAGUGAUGUUUACUCCGGCUUAUAGGUAGGACCGGGUUAUUAUCUU [theeternabot_sameState_KL_Trp_B_39]	229	336	257	302	181
GCCGUACGCAUGGAUACCAGCACAGGCCGAAGUGAUGUUUCGUGCGUAUAUUUGUGCUACUGCCCUUGGCAGCCAUGCGUACGGC	75.8	66.9	73.9	66.5	75.2
GCCGUACGCAUGGAUACCAGCUGCGAAGUGAUGUUUCGGGCGAUCAAAGGAUCGCCCUACAGCCCUUGGCAGCCAUGCGUACGGC	215	117	173	125	118
GCCGUAGAUGGAAGGAGCGUGGUAGACUGUUGAAGUGAUGUUUCAACUCAUUAAGCCCAACCACAGGUAGGUCGCCAUCUACGGC	133	107	107	112	120
GCCGUAGAUUGAAGGAGCGGGCCGUAGUGAUGUUACGCCAAAUUAUCCUUUCUUGAGGUGGUCCAGGUAGGUCGCAAUCUACGGC	168	144	148	109	118
